Source: patent publication US20060239990A1 (published 2006)

T1: GST-RB fusion protein (UniProt P06400 1-928)
T1 construct: not shown: glutathione S-transferase tag of the pGEX-6P vector (Amersham/Pharmacia)
T1 sequence (looked up): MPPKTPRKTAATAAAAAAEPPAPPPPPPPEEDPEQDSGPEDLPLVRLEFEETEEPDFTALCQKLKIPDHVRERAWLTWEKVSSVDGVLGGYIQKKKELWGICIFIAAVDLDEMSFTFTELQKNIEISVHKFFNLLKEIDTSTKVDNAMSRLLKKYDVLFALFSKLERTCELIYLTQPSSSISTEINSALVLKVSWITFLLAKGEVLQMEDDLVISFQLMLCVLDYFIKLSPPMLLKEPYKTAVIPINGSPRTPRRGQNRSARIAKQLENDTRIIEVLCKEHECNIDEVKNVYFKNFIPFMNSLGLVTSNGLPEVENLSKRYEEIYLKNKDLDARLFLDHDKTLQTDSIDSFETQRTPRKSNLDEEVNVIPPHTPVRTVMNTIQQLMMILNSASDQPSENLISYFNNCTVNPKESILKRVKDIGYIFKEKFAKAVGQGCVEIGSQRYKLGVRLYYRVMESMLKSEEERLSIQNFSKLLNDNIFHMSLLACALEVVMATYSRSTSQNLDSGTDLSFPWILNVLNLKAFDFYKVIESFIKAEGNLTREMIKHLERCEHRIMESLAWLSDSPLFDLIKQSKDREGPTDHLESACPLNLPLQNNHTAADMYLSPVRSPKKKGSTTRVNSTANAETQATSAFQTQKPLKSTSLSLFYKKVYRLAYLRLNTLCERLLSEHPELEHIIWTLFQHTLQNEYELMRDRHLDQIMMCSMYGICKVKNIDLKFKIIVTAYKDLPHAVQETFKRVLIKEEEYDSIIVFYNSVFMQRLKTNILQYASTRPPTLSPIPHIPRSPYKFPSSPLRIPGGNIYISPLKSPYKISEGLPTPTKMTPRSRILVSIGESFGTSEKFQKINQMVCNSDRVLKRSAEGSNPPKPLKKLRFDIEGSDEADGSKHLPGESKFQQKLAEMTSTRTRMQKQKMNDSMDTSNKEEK


What was measured:
GST-RB fusion protein [1] = target: T1, GST-RB fusion protein; experiment: GST pull-down of S35-labeled in vitro translated protein with GST-RB on glutathione sepharose beads
Experimental: GST-RB and GST were bound to glutathione sepharose beads and incubated with S³⁵-labeled in vitro translated PRMT1, PRMT2, PRMT3, and PRMT4. Co-precipitated labeled PRMTs were analyzed by SDS-PAGE. […] HA-tagged PRMT2 (+) or control vectors (−) were transfected in 293 cells. Cell lysates were immunoprecipitated with rabbit RB antibodies or IgG and followed by Western blot analysis using mouse HA and RB antibodies (upper panel). A Western blot using mouse HA antibodies detects HA-tagged PRMT2 (lower panel).
The crude cell lysate of the GST-fusion proteins was prepared and purified according to the manufacture's protocol (Amersham/Pharmacia). [³⁵S]-methionine-labeled protein was produced by in vitro transcription/translation using the TNT T7-coupled reticulocyte lysate system (Promega). [³⁵S]-methionine-labeled protein and GST-fusion protein bound to glutathione sepharose 4B beads were incubated in 500 μl of HNE buffer (50 mM Hepes, pH 7.8, 150 mM NaCl, 1 mM EDTA, 1 mM DTT, 1% NP40, and 1× protease inhibitor mix (Complete: Roche)) at 4° C. for 1 hour. Beads were washed four times with HNE buffer, and then analyzed on an SDS-PAGE gradient gel (4-15%). […]

GST-RB fusion protein [2] = target: T1, GST-RB fusion protein; experiment: GST pull-down of S35-labeled in vitro translated protein with GST-RB

Row | binding result (GST-RB fusion protein [1]) | binding result (GST-RB fusion protein [2]) | Binder
1 | no binding | – | S35-labeled in vitro translated PRMT3 (human) (enzyme, UniProt O60678 2-531, looked up, [35S]-methionine label) CSLASGATGGRGAVENEEDLPELSDSGDEAAWEDEDDADLPHGKQQTPCLFCNRLFTSAEETFSHCKSEHQFNIDSMVHKHGLEFYGYIKLINFIRLKNPTVEYMNSIYNPVPWEKEEYLKPVLEDDLLLQFDVEDLYEPVSVPFSYPNGLSENTSVVEKLKHMEARALSAEAALARAREDLQKMKQFAQDFVMHTDVRTCSSSTSVIADLQEDEDGVYFSSYGHYGIHEEMLKDKIRTESYRDFIYQNPHIFKDKVVLDVGCGTGILSMFAAKAGAKKVLGVDQSEILYQAMDIIRLNKLEDTITLIKGKIEEVHLPVEKVDVIISEWMGYFLLFESMLDSVLYAKNKYLAKGGSVYPDICTISLVAVSDVNKHADRIAFWDDVYGFKMSCMKKAVIPEAVVEVLDPKTLISEPCGIKHIDCHTTSISDLEFSSDFTLKITRTSMCTAIAGYFDIYFEKNCHNRVVFSTGPQSTKTHWKQTVFLLEKPFSVKAGEALKGKVTVHKNKKDPRSLTVTLTLNNSTQTYGLQ
2 | – | no binding | PRMT2(1-95&219-433) (enzyme, [35S]-methionine label in the binding assay, the same deletion was expressed from pVR1012 in the U2OS reporter assay; also called Int-del) MATSGDCPRSESQGEEPAECSEAGLLQEGVQPEEFVAIADYAATDETQLSFLRGEKILILRQTTADWWWGERAGCCGYIPANHVGKHVDEYDPEDFEFMIESILYARDAWLKEDGVIWPTMAALHLVPCSADKDYRSKVLFWDNAYEFNLSALKSLAVKEFFSKPKYNHILKPEDCLSEPCTILQLDMRTVQISDLETLRGELRFDIRKAGTLHGFTAWFSVHFQSLQEGQPPQVLSTGPFHPTTHWKQTLFMMDDPVPVHTGDVVTGSVVLQRNPVWRRHMSVALSWAVTSRQDPTSQKVGEKVFPIWR
3 | – | no binding | PRMT2(1-95) (enzyme, [35S]-methionine label) MATSGDCPRSESQGEEPAECSEAGLLQEGVQPEEFVAIADYAATDETQLSFLRGEKILILRQTTADWWWGERAGCCGYIPANHVGKHVDEYDPED
4 | no binding | – | S35-labeled in vitro translated PRMT4 (CARM1) (human) (enzyme, UniProt Q86X55 2-608, looked up, [35S]-methionine label) AAAAAAVGPGAGGAGSAVPGGAGPCATVSVFPGARLLTIGDANGEIQRHAEQQALRLEVRAGPDSAGIALYSHEDVCVFKCSVSRETECSRVGKQSFIITLGCNSVLIQFATPNDFCSFYNILKTCRGHTLERSVFSERTEESSAVQYFQFYGYLSQQQNMMQDYVRTGTYQRAILQNHTDFKDKIVLDVGCGSGILSFFAAQAGARKIYAVEASTMAQHAEVLVKSNNLTDRIVVIPGKVEEVSLPEQVDIIISEPMGYMLFNERMLESYLHAKKYLKPSGNMFPTIGDVHLAPFTDEQLYMEQFTKANFWYQPSFHGVDLSALRGAAVDEYFRQPVVDTFDIRILMAKSVKYTVNFLEAKEGDLHRIEIPFKFHMLHSGLVHGLAFWFDVAFIGSIMTVWLSTAPTEPLTHWYQVRCLFQSPLFAKAGDTLSGTCLLIANKRQSYDISIVAQVDQTGSKSSNLLDLKNPFFRYTGTTPSPPPGSHYTSPSENMWNTGSTYNLSSGMAVAGMPTAYDLSSVIASGSSVGHNNLIPLANTGIVNHTHSRMGSIMSTGIVQGSSGAQGSGGGSTSAHYAVNSQFTMGGPAISMASPMSIPTNTMHYGS
